Numbered stars: 1 amine (or outer) side, 2 acyl side, 3 side chain; on linkers, the order of the positions; unused ones are H or OH. Square brackets hold non-standard residues; d marks the D form. Peptide text beside a SMILES is read from it. * marks the point of attachment. NOTA = O=C(O)CN1CCN(CC(=O)O)CCN(CC(=O)*)CC1; azaPhe = O=C(N(Cc1ccccc1)N[*:1])[*:2]; Nle = CCCC[C@H](N)C(=O)O; azaGly = NNC(=O)O
Legend:
Aβ40 = molecular target: T1, Aβ40 (Homo sapiens, UniProt P05067); experiment: Thioflavin T (ThT) fluorescence assay of Aβ40 aggregation; format: biochemical; conditions: ThT, 10 μM soluble Aβ40
T1 construct: The extent of Aβ40 aggregation in the presence of increasing concentrations of azacyclopeptides
T1 sequence (P05067 672-711 limits assumed): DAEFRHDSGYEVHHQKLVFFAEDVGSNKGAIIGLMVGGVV
Description: Amyloid generation can be identified and quantified using the thioflavin T (ThT) fluorescence dye assay. […] Agents that bind and inhibit aggregation of Aβ diminish ThT fluorescence relative to untreated Aβ. The extent of Aβ40 aggregation in the presence of increasing concentrations of azacyclopeptides and azasulfurylcyclopeptide 55 was evaluated by the ThT assay. Fluorescence of Aβ40 that was aged for 48 h was used as control, defined as 0% anti-amyloidogenic activity, and compared with fluorescence in the presence of cyclic peptide mimics at increasing concentrations to measure anti-amyloidogenic activity.

CL2006 C. elegans strain = system: CL2006 C. elegans strain; parameters: species or system Caenorhabditis (C.) elegans; conditions: in vivo
Description: Compound 3 was used in two in vivo transgenic Caenorhabditis (C.) elegans models expressing human Aβ42. The CL2006 C. elegans strain produces constitutively a body-wall muscle-specific Aβ42, the aggregation of which causes age-dependent paralysis, motility dysfunction and consequently short lifespan. The CL2355 strain expresses a temperature-inducible pan-neuronal Aβ42, accumulation of which leads to deficits in chemotaxis, associative learning and thrashing in liquid. The CL2006 mutant and control CL802 wild type worms had respective lifespans of 13.6 and 15.6 days (P<0.005, FIG. 3A).

Aβ species = experiment: PET imaging of ^64Cu-conjugates in 5×FAD mice; format: in vivo; conditions: for Aβ uptake (activity in the Aβ species) / Aβ uptake relative to ^64Cu-1-NOTA: 6-month old 5×FAD mice; for Aβ uptake (activity in the Aβ species): 20 h post-injection
Description: (§1) Images were taken 3 weeks apart on the same 5×FAD mouse for ^64Cu-conjugate 43 and ^11C-PIB (FIGS. 1B and C) using the 2-(4′-[^11C]methylaminophenyl)-6-hydroxybenzothiazole (^11C-PIB) compound. Use of ^11C-PIB is limited to 1 h due to short half-life (t1/2=20.4 min). […] In control 44 day-old WT mouse at 1-day post-injection of ^64Cu-conjugate 43, brain uptake is very low (FIG. 1D). Non-transgenic littermates (labeled as wild type (WT) controls in the text and FIG. 1D) were housed in the same manner as 5×FAD mice and used for comparison.
(§2) Amyloid plaque detection was evaluated in 4.5-7-month-old Tg [5×FAD] mice and age-matched wild-type controls using the ^11C-PIB compound. 5×FAD mice carry both mutant human APP(695) with the Swedish (K670N, M671L), Florida ([…]), and London (V717I) Familial Alzheimer's Disease (FAD) mutations and human PS1 harboring two FAD mutations, M146L and L286V. 5×FAD mice develop plaque formation beginning at 2 months and cognitive deficits at 4-6 months. […] Amyloid beta of ^64Cu-conjugate 40 in hippocampus at 1 h post injection (1.285±0.034% ID/g) was similar to that of ^11C-PIB (1.038±0.028% ID/g. FIG. 1) in the cortex.
(§3) Red and blue colours represent respectively highest and zero uptake. […] Different intensity scales were used for PET images. […] Images were taken 3 weeks apart on different mouse for ^64Cu-43 and ^11C-PIB. Co-registration of experimental image data with brain mask to mouse atlas space was achieved to identify volumes of interest. 1. Striatum; 2. Cortex; 3. Hippocampus; 4. Thalamus; 5. Cerebellum; 6. Basal forebrain septum; 7. Hypothalamus; 8. Amygdala; 9. Brain stem; 10. Central gray; 11. […] Olfactory bulb; 13. Midbrain; 14.

[1] = PET imaging and biodistribution, formulation tests in Balb/c mice; format: in vivo
Description: Different formulations were tested with the ^64Cu-1-NOTA conjugate to investigate the solubility of the PET tracer in vivo and select the best formulation for PET imaging studies. […] For further in vivo studies, 8% DMSO and 9% sucrose (for azaconjugates) were used.

[2] = PET imaging of ^64Cu-conjugates in 5×FAD mice; format: in vivo; conditions: mouse, in vivo, total radioactivity
Description: as §1, §2, §3

With `CCCC[C@@H]1NC(=O)[C@@H](CC(C)C)NC(=O)[C@H](CCCCN)NC(=O)NNC(=O)[C@H](Cc2c[nH]cn2)NC(=O)[C@@H](Cc2c[nH]c3ccccc23)NC1=O` [Compound 3, c(D-Leu-L-Nle-D-Trp-L-His-Gly*-L-Lys)] (cyclo(K[dL][Nle][dW]H[azaGly])) the “Inhibition of amyloidogenic activity(%)” value (Aβ40; Aβ:peptide 1:1) was 83.7%, the “Inhibition of amyloidogenic activity(%)” value (Aβ40; Aβ:peptide 1:5) was 81.3% and the “Inhibition of amyloidogenic activity(%)” value (Aβ40; Aβ:peptide 1:10) was 83.7%. The toxicity and longevity (CL2006 C. elegans strain) was “no toxicity and no influence on wild type CL802 worm longevity”.

With `[11CH3]Nc1ccc(-c2nc3ccc(O)cc3s2)cc1` [^11C-PIB, 2-(4′-[^11C]methylaminophenyl)-6-hydroxybenzothiazole, reference compound] the “uptake in the cortex” value (Aβ species; 5×FAD mice, ^11C-PIB) was 1.038±0.028 % ID/g.

With `CCCC[C@@H]1NC(=O)[C@@H](CC(C)C)NC(=O)[C@H](CCCCNC(=O)CN2CCN(CC(=O)O)CCN(CC(=O)O)CC2)NC(=O)[C@@H](CO)NC(=O)[C@H](Cc2c[nH]cn2)NC(=O)[C@@H](Cc2c[nH]c3ccccc23)NC1=O` [^64Cu-1-NOTA, metal not drawn] (cyclo([dL][Nle][dW]H[dS]K(NOTA))) the “Aβ uptake (activity in the Aβ species)” value (Aβ species) was 0.430±0.010 % ID/g, the organ uptake ([1]; Intra-lipid (20% IV fat-emulsion) formulations) was “lower uptake in the lungs and a higher uptake in the gastrointestinal tract and gallbladder” and the organ uptake ([1]; formulated in 8% DMSO) was “High lung and liver uptake”.

Work on `CCCC[C@@H]1NC(=O)N(Cc2ccccc2)NC(=O)[C@H](CCCCNC(=O)CN2CCN(CC(=O)O)CCN(CC(=O)O)CC2)NC(=O)[C@@H](CO)NC(=O)[C@H](Cc2c[nH]cn2)NC(=O)[C@@H](Cc2c[nH]c3ccccc23)NC1=O` [^64Cu-conjugate 40, metal not drawn] (cyclo([azaPhe][Nle][dW]H[dS]K(NOTA))) yielded a tissue uptake ([2]; 5×FAD mice at 4.5 months, read-out: accumulation of activity in the Aβ species) of 0.165 ± 0.005 %ID/g, a tissue uptake at 1 h ([2]; 5×FAD mice, 1 h post injection, read-out: uptake in hippocampus) of 1.28 ± 0.034 %ID/g and a tissue uptake at 20 h ([2]; 6-month old 5×FAD mice, 20 h post-injection, read-out: Aβ uptake (activity in the Aβ species)) of 2.1 ± 0.059 %ID/g. For the same molecule, the “time of highest activity value in Aβ species” value (Aβ species; 5×FAD mice, post injection) was 1 days, the “Aβ uptake relative to ^64Cu-1-NOTA” value (Aβ species) was “approximatively five times superior” and the “Aβ uptake (activity in the Aβ species)” value (Aβ species) was 2.102±0.059 % ID/g.

With `CCCC[C@@H]1NC(=O)[C@@H](CC(C)C)NC(=O)[C@H](CCCCNC(=O)CN2CCN(CC(=O)O)CCN(CC(=O)O)CC2)NC(=O)NNC(=O)[C@H](Cc2c[nH]cn2)NC(=O)[C@@H](Cc2c[nH]c3ccccc23)NC1=O` [^64Cu-conjugate 43, metal not drawn] (cyclo([dL][Nle][dW]H[azaGly]K(NOTA))) the “Aβ uptake relative to ^64Cu-1-NOTA” value (Aβ species) was “approximatively five times superior”, the “Aβ uptake (activity in the Aβ species)” value (Aβ species) was 2.030±0.056 % ID/g and the “uptake into the thalamus” value (Aβ species; Tg female 5×FAD AD mice, 9% sucrose in saline, 1-day post-injection) was “increased with age from 44 to 72 days”. For the same molecule, the brain uptake (Aβ species; control 44 day-old WT mouse, 1-day post-injection) was “very low”.
